Patent US10006010B2, “Cytochrome P450 fusion protein” (The University of York, priority 2014, dated 2018)

Columns and labels:
Assay type in all cases: biochemical
[1] = Enzyme assay on soluble/microsomal preparations of S. cerevisiae expressing STORR fusion or modules, substrate 1,2-dehydroreticuline; details: soluble or microsomal preparations from S. cerevisiae; 100 μM substrate, 1 mM NADPH, 37° C. 3 hours
Excerpt: Genscript created synthetic DNA sequences were created for PsCPR [Genbank accession AAC05021, (Rosco A. et al. (1997) Arch. Biochem. Biophys. 348, 369-77), the full length STORR (CYP82Y2-Oxidoreductatse (“Oxired”)) protein, the N-terminal CYP82Y2 module and C-terminal oxidoreductase (Oxidoreductase) module, that were codon optimised for expression is Saccharomyces cerevisiae. The codon-optimized sequences are provided with the SEQ ID NO 30-33.
Expression vector pESC-TRP::soloxired was created by digesting the corresponding PCR product with NotI and PacI and inserting this behind the GAL10 promoter of pESC-TRP. pESC-TRP::CPR was created by digesting the corresponding PCR product with BamHI and XhoI and inserting this behind the GAL1 promoter of pESC-TRP. This was then used to created pESC-TRP::CPR::CYP82Y2 and pESC-TRP::CPR::CYP82Y2-Oxidoreductase. These plasmids were then transformed in S. cerevisiae G175 (Sorger D. et al. (2004) J. Biol. Chem. 279, 31190-6) using lithium acetate protocol (Geitz R. D. and Woods R. A. (2002) Methods in Enzymology 350, 87-96). Yeasts were cultivated in Synthetic Defined (SD) medium composed of 2% carbon source, 0.5% ammonium sulfate, 1.7 g L^−1 yeast nitrogen base (without amino acids and ammonium sulfate) and 1.92 g L^−1 or tryptophan drop-out supplement (Sigma-Aldrich, Gillingham, UK). Cultures grown using glucose as a carbon source were used to inoculate 200 ml cultures with raffinose as a carbon source to an OD 600 nm of 0.10 in 1 L conical flasks. […]
Enzymes assays were set up in 250 μL volumes containing final concentrations of 50 mM Bis-tris propane buffer, 1 mM NADPH and 100 μM of substrate. […] The extract was then dissolved in 100 μL of 50:50:0.1 hexane/ethanol/diethylamine and analysed by the chiral HPLC method to determine the relative amounts of (R)- and (S)-reticuline.
Poppy capsules were processed and analysed by UPLC-MS and R-scripts as previously described (“the standard method”; (Winzer T. et al. (2012) Science 336, 1704-8)). […]

[2] = Recombinant oxidoreductase enzyme assay (E. coli-expressed, purified), substrate coclaurine
Description: (§1) The coding sequences of oxidoreductase A and B (Seq ID NO 6 and NO 10, respectively) were codon optimised for expression in E. coli and the synthetic genes were cloned into the vector pET28 to yield a recombinant C-terminal 6×-His tagged enzymes (GenScript, Piscataway, N.J., USA). The constructs were transformed into E. coli Arctic express strain (Agilent Technologies, Wokingham, UK). Per construct, 3-5 freshly transformed Arctic express E. coli colonies were pre-inoculated in 10 mL 2YT medium containing 100 mg/L kanamycin and 20 mg/L gentamycin and incubated at 37° C. overnight. A 5-mL aliquot was used to inoculate 500 mL of the above medium not containing antibiotics and cells were allowed to grow at 30° C. until OD600=0.5-0.7. A 1-mL aliquot of the uninduced cells was removed and spun down at 14,000×g and the cell pellet was lysed in SDS-PAGE sample buffer. 1 mM IPTG was added to the culture and then incubated at 20° C. for 24 h. Cells were then harvested following a 5 min spin at 5,000×g and resuspended in 20 mL ice-cold extraction buffer (0.1 M Tris pH 8, 0.3 M NaCl, 0.1% (v/v) Tween 20 and Halt EDTA-free protease inhibitor cocktail (Pierce/Thermoscientific, Cramlington, UK)). Bacterial suspensions were lysed in a French Press at 4° C. using a 25 kpsi disruption cycle (Model TS0.75 KU, Constant Cell Disruption Systems, Daventry, UK). Cell lysates were then spun down at 12,000×g for 20 min at 4° C. and thus fractionated into supernatant (soluble fraction) and pellet.
(§2) A 20 mL soluble fraction was filtered through a 0.45 μm syringe filter and the His-tagged proteins were purified using a His Trap Fast Flow crude 5 mL column (GE Healthcare, Little Chalfont, UK) installed in an AKTA Purifier UPC 10 System (GE Healthcare, Sweden) at 4° C. under the following steps: column equilibration in 50 mL 0.1 M Tris pH 8, 0.3 M NaCl, 0.1% (v/v) Tween 20 at 2 mL/min; sample loading at 0.4 mL/min; column wash in 50 mL 0.1 M Tris pH 8, 0.3 M NaCl, 0.1% (v/v) Tween 20, 5 mM imidazole at 2 mL/min; elution in 100 mL 0.1 M Tris pH 8, 0.3 M NaCl, 0.1% (v/v) Tween 20, and a 10-500 mM imidazole gradient at 2 mL/min. Two mL fractions were individually collected. Protein absorbance at 280 nm was monitored throughout the purification procedure. Elution fractions showing absorbance peaks were collected and analysed through SDS-PAGE. Purified proteins (Seq ID NO 3 and 11, respectively) were quantified using Coomassie Plus Protein Assay (Pierce/Thermoscientific, Cramlington, UK) and desalted to remove any inhibitors/interferents using 10 mL Zeba Spin Desalting Columns MWCO 7K, (Pierce/Thermoscientific, Cramlington, UK) pre-equilibrated in 20 mM Potassium Phosphate buffer pH 7.
(§3) General reaction set up was carried out as previously described (Lenz & Zenk, 1995, FEBS 233:132-139). Substrates (S)-reticuline, 1,2-dehydroreticuline and coclaurine were purchased from TRC Chemicals (Toronto, Canada) and codeinone was supplied by MacFarlan-Smith (Edinburgh, UK). Assay reactions contained […], 5 μg oxidoreductase A or B preparation, 100 mM buffer covering a range of pH values (potassium phosphate pH 6-8, glycine-NaOH pH 9) and 75 μM substrate. Reactions were incubated for 2 h at 37° C. and immediately frozen at −80° C. Reactions were dried down to powder in speedvac Gene Vac EZ-2 plus (Ipswich, UK) at 40° C. and resuspended in 100 μL 1:1 Hexane:Ethanol (v/v), 0.1% Diethylamine (v/v). […]

[3] = Recombinant oxidoreductase enzyme assay (E. coli-expressed, purified), substrate (S)-reticuline
Description: as §1, §2, §3

[4] = Recombinant oxidoreductase enzyme assay (E. coli-expressed, purified), substrate 1,2-dehydroreticuline
Description: as §1, §2, §3

[5] = Recombinant oxidoreductase enzyme assay (E. coli-expressed, purified), substrate codeinone; details: for nmol product formation at pH 6.0 / nmol product formation at pH 7.0 / nmol product formation at pH 8.0 / nmol product formation at pH 9.0: substrate codeinone
Description: as §1, §2
General reaction set up was carried out as previously described (Lenz & Zenk, 1995, FEBS 233:132-139). Substrates (S)-reticuline, 1,2-dehydroreticuline and coclaurine were purchased from TRC Chemicals (Toronto, Canada) and codeinone was supplied by MacFarlan-Smith (Edinburgh, UK). Assay reactions contained […], 5 μg oxidoreductase A or B preparation, 100 mM buffer covering a range of pH values (potassium phosphate pH 6-8, glycine-NaOH pH 9) and 75 μM substrate. Reactions were incubated for 2 h at 37° C. and immediately frozen at −80° C. Reactions were dried down to powder in speedvac Gene Vac EZ-2 plus (Ipswich, UK) at 40° C. and resuspended in 100 μL 1:1 Hexane:Ethanol (v/v), 0.1% Diethylamine (v/v).
Chiral separations were performed following the method previously described (Iwasa et al., 2009, Phytochem 70:198-206) and carried out on a TSP HPLC system equipped with a UV6000 LP detector, a P4000 pump and an AS 3000 autosampler (Thermo Separation Products/Thermoscientific, Waltham, Mass., USA) connected to a mass spectrometer LCQ Classic mass spectrometer (Finnigan Mat, San Jose, Calif., USA). A Lux 5μ Cellulose 3 250×4.6 mm column (Phenomenex, Macclesfield, UK) was used for separations. […]

[6] = NADPH dependent reduction, pH 6 to 9
[7] = product neopine, triplicate mean ± SD

B1: oxidoreductase module: C-terminal oxidoreductase module of STORR (codon optimized SEQ ID NO 33) expressed in S. cerevisiae (protein)
chain: MESSGVPVITLGSGKVMPVLGMGTFEKVGKGSERERLAILKAIEVGYRYFDTAAAYETEEVLGEAIAEALQLGLVKSRDELFISSMLWCTDAHADRVLLALQNSLRNLKLEYVDLYMLPFPASLKPGKITMDIPEEDICRMDYRSVWAAMEECQNLGFTKSIGVSNFSCKKLQELMATANIPPAVNQVEMSPAFQQKKLREYCNANNILVSAISVLGSNGTPWGSNAVLGSEVLKKIAMAKGKSVAQVSMRWVYEQGASLVVKSFSEERLRENLNIFDWELTKEDHEKIGEIPQCRILSAYFLVSPNGPFKSQEELWDDEA
modifications: Yeast codon optimised Oxidoreductase
- conversion efficiency of 1,2-dehydroreticuline to (R)-reticuline [1]: 100%

B2: Oxidoreductase B: Recombinant His-tagged close homologue (96% amino acid identity) of oxidoreductase A (SEQ ID NO 11), expressed in E. coli (protein, listed as Papaver somniferum)
chain: MESSGVPVITLSSGKLMPVLGMGTFEKVGKGSERERLVILKAIEVGYRYFDTAAAYETEEVLGEAIAEALQLGLIKSRDELFISSMLWCTDAHPDRVLLALQNSLRNLKLEYLDLYMLPFPVSLKPGKITMDIQEEDICRMDYRSVWAAMEECQNLGFTKSIGVSNFSCKKLQELMATANIPPDVNQVEMSPAFQQKKLRDYCNANNILVSAVSILGSNGTPWGSNAVLGSEVLRKIAMAKGKSVAQVSMRWVYDQGASLVVKSFSEERLRENLNIFDWELTKEDHEKIGEIPQCRILSAYFLVSPNGPFKSQEELWDDEA
modifications: His tag
- transformation of the substrate coclaurine (in words) ([2]; pH 6 to 9): no transformation of the substrate
- nmol product formation at pH 6.0 ([2]; substrate coclaurine, no product observed, pH 6.0, 75 μM substrate, NADPH, 2 h 37° C., triplicate mean ± SD): 0.0 nmol
- nmol product formation at pH 7.0 ([2]; substrate coclaurine, no product observed, pH 7.0): 0.0 nmol
- nmol product formation at pH 8.0 ([2]; substrate coclaurine, no product observed, pH 8.0): 0.0 nmol
- nmol product formation at pH 9.0 ([2]; substrate coclaurine, no product observed, pH 9.0): 0.0 nmol
- transformation of the substrate (S)-reticuline (in words) ([3]; pH 6 to 9): no transformation of the substrate
- nmol product formation at pH 6.0 ([3]; substrate (S)-reticuline, expected product dehydroreticuline, pH 6.0): 0.0 nmol
- nmol product formation at pH 7.0 ([3]; substrate (S)-reticuline, expected product dehydroreticuline, pH 7.0): 0.0 nmol
- nmol product formation at pH 8.0 ([3]; substrate (S)-reticuline, expected product dehydroreticuline, pH 8.0): 0.0 nmol
- nmol product formation at pH 9.0 ([3]; substrate (S)-reticuline, expected product dehydroreticuline, pH 9.0): 0.0 nmol
- conversion of 1,2-dehydroreticuline to (R)-reticuline (in words) ([4]; pH 6 to 9): efficiently converted
- nmol product formation at pH 6.0 ([4]; substrate dehydroreticuline, product (R)-reticuline, pH 6.0, triplicate mean ± SD): 0.148 ± 0.036 nmol
- nmol product formation at pH 7.0 ([4]; substrate dehydroreticuline, product (R)-reticuline, pH 7.0, triplicate mean ± SD): 0.130 ± 0.021 nmol
- nmol product formation at pH 8.0 ([4]; substrate dehydroreticuline, product (R)-reticuline, pH 8.0, triplicate mean ± SD): 0.164 ± 0.020 nmol
- nmol product formation at pH 9.0 ([4]; substrate dehydroreticuline, product (R)-reticuline, pH 9.0, triplicate mean ± SD): 0.202 ± 0.026 nmol
- formation of codeine from codeinone (in words) [5, 6]: did not form codeine
- formation of neopine from codeinone (in words) [5, 6]: neopine production within pH values 6 to 8
- nmol product formation at pH 6.0 ([5]; product codeine): 0.0 nmol
- nmol product formation at pH 7.0 ([5]; product codeine): 0.0 nmol
- nmol product formation at pH 8.0 ([5]; product codeine): 0.0 nmol
- nmol product formation at pH 9.0 ([5]; product codeine, triplicate mean ± SD): 0.0 nmol
- nmol product formation at pH 6.0 [5, 7]: 0.040 ± 0.020 nmol
- nmol product formation at pH 7.0 [5, 7]: 0.005 ± 0.001 nmol
- nmol product formation at pH 8.0 [5, 7]: 0.016 ± 0.008 nmol
- nmol product formation at pH 9.0 ([5]; product neopine): 0.000 nmol
